Assay results: the supplement of paper PMC9112550, “Optimization of the antimicrobial peptide Bac7 by deep mutational scanning” (BMC Biology, 2022)

test system: Escherichia coli TOP10; assay: shrunken log2 fold change of peptide-encoding DNA abundance (4.5 h post-induction vs induction); higher = less antimicrobial activity (less host growth inhibition); conditions: time post-induction: 4.5 h; library: site-saturation at positions 5, 18, 19, 20
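Note: peptides expressed intracellularly from a pBAD plasmid library in pooled LB shake-flask culture, induced with 0.3% L-arabinose, DNA abundance read by NGS, three biological replicates, DESeq2 with apeglm shrinkage.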

Row | Sequence | shrunken log2 fold change
1 | RRIRGRPPRLPRPRPRPCCRPRP | 0.918
2 | RRIRGRPPRLPRPRPRPCCYPRP | 0.786
3 | RRIRGRPPRLPRPRPRPCFDPRP | 0.299
4 | RRIRGRPPRLPRPRPRPCFMPRP | 0.0852
5 | RRIRGRPPRLPRPRPRPCGSPRP | 0.107
6 | RRIRGRPPRLPRPRPRPCHHPRP | -0.00543
7 | RRIRGRPPRLPRPRPRPCHIPRP | -0.028
8 | RRIRGRPPRLPRPRPRPCHRPRP | 0.207
9 | RRIRGRPPRLPRPRPRPCHWPRP | -0.175
10 | RRIRGRPPRLPRPRPRPCIDPRP | 0.877
11 | RRIRGRPPRLPRPRPRPCILPRP | 0.0804
12 | RRIRGRPPRLPRPRPRPCIRPRP | 0.174
13 | RRIRGRPPRLPRPRPRPCKAPRP | 0.377
14 | RRIRGRPPRLPRPRPRPCKKPRP | 0.00863
15 | RRIRGRPPRLPRPRPRPCMEPRP | 0.831
16 | RRIRGRPPRLPRPRPRPCNRPRP | 0.212
17 | RRIRGRPPRLPRPRPRPCPAPRP | 0.383
18 | RRIRGRPPRLPRPRPRPCPNPRP | 0.0353
19 | RRIRGRPPRLPRPRPRPCQCPRP | 0.268
20 | RRIRGRPPRLPRPRPRPCRYPRP | 0.24
21 | RRIRGRPPRLPRPRPRPCTEPRP | 0.509
22 | RRIRGRPPRLPRPRPRPCTGPRP | 0.11
23 | RRIRGRPPRLPRPRPRPCTTPRP | 0.141
24 | RRIRGRPPRLPRPRPRPCWRPRP | 0.248
25 | RRIRGRPPRLPRPRPRPCYPPRP | 0.0523

Row | Sequence | shrunken log2 fold change
26 | RRIRGRPPRLPRPRPRPDADPRP | 3.64
27 | RRIRGRPPRLPRPRPRPDAKPRP | 2
28 | RRIRGRPPRLPRPRPRPDAPPRP | 1.9
29 | RRIRGRPPRLPRPRPRPDCDPRP | 0.841
30 | RRIRGRPPRLPRPRPRPDDMPRP | 0.00936
31 | RRIRGRPPRLPRPRPRPDDVPRP | 0.966
32 | RRIRGRPPRLPRPRPRPDEDPRP | 0.168
33 | RRIRGRPPRLPRPRPRPDEPPRP | 1.37
34 | RRIRGRPPRLPRPRPRPDFSPRP | 0.313
35 | RRIRGRPPRLPRPRPRPDGMPRP | 0.86
36 | RRIRGRPPRLPRPRPRPDIAPRP | 0.782
37 | RRIRGRPPRLPRPRPRPDIHPRP | 0.439
38 | RRIRGRPPRLPRPRPRPDIMPRP | 0.0438
39 | RRIRGRPPRLPRPRPRPDQRPRP | 0.55
40 | RRIRGRPPRLPRPRPRPDRDPRP | 0.326
41 | RRIRGRPPRLPRPRPRPDVEPRP | 1.27
42 | RRIRGRPPRLPRPRPRPDWRPRP | 0.404
43 | RRIRGRPPRLPRPRPRPDWTPRP | 0.316
44 | RRIRGRPPRLPRPRPRPEAHPRP | 0.079
45 | RRIRGRPPRLPRPRPRPEAIPRP | 1.82
46 | RRIRGRPPRLPRPRPRPEAMPRP | 0.59
47 | RRIRGRPPRLPRPRPRPECKPRP | 0.841
48 | RRIRGRPPRLPRPRPRPECYPRP | 0.25
49 | RRIRGRPPRLPRPRPRPEEFPRP | 0.593
50 | RRIRGRPPRLPRPRPRPEGVPRP | 1.48

Row | Sequence | shrunken log2 fold change
51 | RRIRGRPPRLPRPRPRPEIGPRP | 1.92
52 | RRIRGRPPRLPRPRPRPEKYPRP | 0.172
53 | RRIRGRPPRLPRPRPRPELGPRP | 1.45
54 | RRIRGRPPRLPRPRPRPELIPRP | 0.408
55 | RRIRGRPPRLPRPRPRPELMPRP | 0.853
56 | RRIRGRPPRLPRPRPRPEMPPRP | 1.48
57 | RRIRGRPPRLPRPRPRPEPEPRP | 1.51
58 | RRIRGRPPRLPRPRPRPEPMPRP | 0.648
59 | RRIRGRPPRLPRPRPRPEPSPRP | 1.47
60 | RRIRGRPPRLPRPRPRPEQDPRP | 1.47
61 | RRIRGRPPRLPRPRPRPEQFPRP | 0.846
62 | RRIRGRPPRLPRPRPRPEREPRP | 1.1
63 | RRIRGRPPRLPRPRPRPERFPRP | 0.969
64 | RRIRGRPPRLPRPRPRPEVAPRP | 1.88
65 | RRIRGRPPRLPRPRPRPEVGPRP | 1.52
66 | RRIRGRPPRLPRPRPRPEYMPRP | 0.409
67 | RRIRGRPPRLPRPRPRPFAHPRP | 0.162
68 | RRIRGRPPRLPRPRPRPFARPRP | 0.484
69 | RRIRGRPPRLPRPRPRPFCAPRP | 0.836
70 | RRIRGRPPRLPRPRPRPFCEPRP | 0.403
71 | RRIRGRPPRLPRPRPRPFEIPRP | -0.017
72 | RRIRGRPPRLPRPRPRPFFDPRP | 0.541
73 | RRIRGRPPRLPRPRPRPFFFPRP | 0.696
74 | RRIRGRPPRLPRPRPRPFFHPRP | -0.0568
75 | RRIRGRPPRLPRPRPRPFFNPRP | 0.186

Row | Sequence | shrunken log2 fold change
76 | RRIRGRPPRLPRPRPRPFHCPRP | -0.36
77 | RRIRGRPPRLPRPRPRPFLIPRP | -0.0796
78 | RRIRGRPPRLPRPRPRPFMGPRP | -0.123
79 | RRIRGRPPRLPRPRPRPFMTPRP | 0.837
80 | RRIRGRPPRLPRPRPRPFNCPRP | -0.116
81 | RRIRGRPPRLPRPRPRPFNIPRP | -0.199
82 | RRIRGRPPRLPRPRPRPFNYPRP | -0.419
83 | RRIRGRPPRLPRPRPRPFPQPRP | 0.717
84 | RRIRGRPPRLPRPRPRPFPRPRP | 1.01
85 | RRIRGRPPRLPRPRPRPFQSPRP | -0.00674
86 | RRIRGRPPRLPRPRPRPFREPRP | -0.21
87 | RRIRGRPPRLPRPRPRPFSIPRP | -0.0155
88 | RRIRGRPPRLPRPRPRPFSVPRP | 0.429
89 | RRIRGRPPRLPRPRPRPFTVPRP | -0.31
90 | RRIRGRPPRLPRPRPRPGCMPRP | 0.898
91 | RRIRGRPPRLPRPRPRPGFTPRP | 0.11
92 | RRIRGRPPRLPRPRPRPGGNPRP | 0.0695
93 | RRIRGRPPRLPRPRPRPGGVPRP | 1.06
94 | RRIRGRPPRLPRPRPRPGLHPRP | 0.682
95 | RRIRGRPPRLPRPRPRPGLSPRP | 1.12
96 | RRIRGRPPRLPRPRPRPGMFPRP | 0.474
97 | RRIRGRPPRLPRPRPRPGNAPRP | 0.478
98 | RRIRGRPPRLPRPRPRPGNNPRP | -0.0385
99 | RRIRGRPPRLPRPRPRPGQMPRP | 0.483
100 | RRIRGRPPRLPRPRPRPGQYPRP | -0.0691

Row | Sequence | shrunken log2 fold change
101 | RRIRGRPPRLPRPRPRPGSGPRP | 0.808
102 | RRIRGRPPRLPRPRPRPGSHPRP | 0.12
103 | RRIRGRPPRLPRPRPRPGSQPRP | 0.722
104 | RRIRGRPPRLPRPRPRPGVQPRP | 0.739
105 | RRIRGRPPRLPRPRPRPGWIPRP | 0.117
106 | RRIRGRPPRLPRPRPRPGYGPRP | -0.0363
107 | RRIRGRPPRLPRPRPRPGYKPRP | 0.191
108 | RRIRGRPPRLPRPRPRPGYWPRP | 1.88
109 | RRIRGRPPRLPRPRPRPHADPRP | 1.68
110 | RRIRGRPPRLPRPRPRPHDIPRP | 0.0295
111 | RRIRGRPPRLPRPRPRPHFAPRP | 0.628
112 | RRIRGRPPRLPRPRPRPHFGPRP | 0.242
113 | RRIRGRPPRLPRPRPRPHGKPRP | 0.513
114 | RRIRGRPPRLPRPRPRPHHRPRP | -0.00334
115 | RRIRGRPPRLPRPRPRPHIGPRP | 0.109
116 | RRIRGRPPRLPRPRPRPHISPRP | -0.0962
117 | RRIRGRPPRLPRPRPRPHKNPRP | 0.535
118 | RRIRGRPPRLPRPRPRPHKWPRP | 0.183
119 | RRIRGRPPRLPRPRPRPHLIPRP | 0.205
120 | RRIRGRPPRLPRPRPRPHMEPRP | 0.0707
121 | RRIRGRPPRLPRPRPRPHQFPRP | 0.106
122 | RRIRGRPPRLPRPRPRPHQHPRP | 0.112
123 | RRIRGRPPRLPRPRPRPHRNPRP | -0.184
124 | RRIRGRPPRLPRPRPRPHRSPRP | 0.188
125 | RRIRGRPPRLPRPRPRPHSQPRP | 0.322

Row | Sequence | shrunken log2 fold change
126 | RRIRGRPPRLPRPRPRPHTAPRP | 0.149
127 | RRIRGRPPRLPRPRPRPHTMPRP | -0.175
128 | RRIRGRPPRLPRPRPRPICRPRP | -0.0289
129 | RRIRGRPPRLPRPRPRPIDDPRP | 0.329
130 | RRIRGRPPRLPRPRPRPIDEPRP | 0.433
131 | RRIRGRPPRLPRPRPRPIGDPRP | 0.667
132 | RRIRGRPPRLPRPRPRPIGKPRP | 0.035
133 | RRIRGRPPRLPRPRPRPIHAPRP | 0.418
134 | RRIRGRPPRLPRPRPRPIHGPRP | -0.161
135 | RRIRGRPPRLPRPRPRPIHYPRP | -0.242
136 | RRIRGRPPRLPRPRPRPIIMPRP | -0.129
137 | RRIRGRPPRLPRPRPRPIKDPRP | 0.309
138 | RRIRGRPPRLPRPRPRPIMFPRP | 0.382
139 | RRIRGRPPRLPRPRPRPIMRPRP | 0.818
140 | RRIRGRPPRLPRPRPRPIMWPRP | 0.39
141 | RRIRGRPPRLPRPRPRPIPKPRP | -0.117
142 | RRIRGRPPRLPRPRPRPIPNPRP | 0.172
143 | RRIRGRPPRLPRPRPRPIRTPRP | 0.21
144 | RRIRGRPPRLPRPRPRPISAPRP | 0.363
145 | RRIRGRPPRLPRPRPRPISTPRP | 0.289
146 | RRIRGRPPRLPRPRPRPITDPRP | 0.0223
147 | RRIRGRPPRLPRPRPRPITGPRP | 0.064
148 | RRIRGRPPRLPRPRPRPIVKPRP | 0.328
149 | RRIRGRPPRLPRPRPRPIVLPRP | -0.0411
150 | RRIRGRPPRLPRPRPRPIWGPRP | 0.128
